In paper doi:10.1101/2020.04.20.033787 (bioRxiv, 2020):

Biological target: SBF (^FLAGSwi4-Swi6 complex) (S. cerevisiae, UniProt P25302 1-1093; P09959 1-803)
Test: pull-down

SBF (^FLAGSwi4-Swi6 complex), sequence (P25302 whole entry, chain 1 of 2): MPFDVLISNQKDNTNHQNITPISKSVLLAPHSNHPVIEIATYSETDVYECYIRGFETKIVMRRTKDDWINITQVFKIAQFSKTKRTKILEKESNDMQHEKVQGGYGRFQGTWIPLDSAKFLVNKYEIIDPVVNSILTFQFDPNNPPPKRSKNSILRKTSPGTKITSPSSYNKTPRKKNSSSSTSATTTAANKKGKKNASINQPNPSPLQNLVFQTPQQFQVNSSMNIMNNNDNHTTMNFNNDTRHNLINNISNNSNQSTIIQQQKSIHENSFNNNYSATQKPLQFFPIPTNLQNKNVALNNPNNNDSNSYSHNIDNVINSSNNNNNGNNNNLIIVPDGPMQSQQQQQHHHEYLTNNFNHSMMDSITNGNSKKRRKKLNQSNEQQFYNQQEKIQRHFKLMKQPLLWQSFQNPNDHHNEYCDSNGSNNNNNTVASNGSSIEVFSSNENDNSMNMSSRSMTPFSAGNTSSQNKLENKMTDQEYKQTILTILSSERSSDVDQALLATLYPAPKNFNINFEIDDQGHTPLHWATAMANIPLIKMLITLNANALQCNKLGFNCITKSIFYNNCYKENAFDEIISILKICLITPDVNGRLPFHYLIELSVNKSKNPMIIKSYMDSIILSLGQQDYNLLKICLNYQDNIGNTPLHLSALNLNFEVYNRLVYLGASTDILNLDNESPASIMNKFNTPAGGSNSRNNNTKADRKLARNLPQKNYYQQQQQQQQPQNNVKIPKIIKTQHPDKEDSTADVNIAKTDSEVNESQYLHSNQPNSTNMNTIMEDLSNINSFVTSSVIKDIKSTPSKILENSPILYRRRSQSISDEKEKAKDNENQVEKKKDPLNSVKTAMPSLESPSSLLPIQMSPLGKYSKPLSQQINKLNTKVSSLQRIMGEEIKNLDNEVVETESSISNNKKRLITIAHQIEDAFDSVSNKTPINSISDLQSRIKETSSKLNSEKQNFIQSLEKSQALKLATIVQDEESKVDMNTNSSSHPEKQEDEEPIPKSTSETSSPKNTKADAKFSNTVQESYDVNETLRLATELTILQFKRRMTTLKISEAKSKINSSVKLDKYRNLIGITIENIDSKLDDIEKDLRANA
SBF (^FLAGSwi4-Swi6 complex), sequence (P09959 whole entry, chain 2 of 2): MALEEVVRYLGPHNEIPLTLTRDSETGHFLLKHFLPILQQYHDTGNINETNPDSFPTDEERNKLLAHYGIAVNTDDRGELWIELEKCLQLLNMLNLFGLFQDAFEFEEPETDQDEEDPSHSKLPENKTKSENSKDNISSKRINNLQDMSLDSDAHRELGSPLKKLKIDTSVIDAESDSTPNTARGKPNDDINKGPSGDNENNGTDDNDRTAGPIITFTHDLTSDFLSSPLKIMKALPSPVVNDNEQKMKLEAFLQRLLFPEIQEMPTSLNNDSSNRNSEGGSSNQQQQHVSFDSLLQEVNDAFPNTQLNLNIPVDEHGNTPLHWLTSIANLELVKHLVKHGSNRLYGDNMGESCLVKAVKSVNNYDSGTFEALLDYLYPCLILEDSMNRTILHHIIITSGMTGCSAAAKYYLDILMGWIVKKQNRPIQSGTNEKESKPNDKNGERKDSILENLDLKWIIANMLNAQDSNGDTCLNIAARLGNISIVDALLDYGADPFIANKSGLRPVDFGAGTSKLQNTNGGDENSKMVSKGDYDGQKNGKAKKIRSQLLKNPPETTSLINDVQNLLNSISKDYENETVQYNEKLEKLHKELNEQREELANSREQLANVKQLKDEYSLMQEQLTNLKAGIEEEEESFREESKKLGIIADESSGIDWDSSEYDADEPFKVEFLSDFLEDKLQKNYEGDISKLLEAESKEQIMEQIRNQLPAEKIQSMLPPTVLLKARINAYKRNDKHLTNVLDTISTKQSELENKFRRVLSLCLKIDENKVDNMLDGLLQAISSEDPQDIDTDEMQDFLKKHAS

binding result: binds
B1: ^GSTWhi5 (recombinant) (natural protein, S. cerevisiae, UniProt Q12416 1-295, looked up)
chain: MSLRTPKRSRTSDEQEQEQEQEQVQNPDTHVNNEHQQRPGPTTLLSTPVRLKNGFGTPSPPSPPGITKSITKSRRRPSTTSLQGIFMSPVNKRRVGITAHGRVYDHNDDGHESESEDDENEEENENQKKYDGHVSMPLLPPTTPKSRRSEVFLSPSPRLRSPPTAARRSTGERPIREISHTLRTRLNYALVKLQNGWTDKTLPELETELAPAVQTPPRRYHNRFPDSADAGTSAHTAFLQALGGHPPREEATAVETLMLLSSPTKKQQHRPVPATSAGEPTDETEPESDTEVETS
